Our source for the binding values is PMC8215210.

The data set has as its target T1, His-OpaR (Vibrio parahaemolyticus RIMD2210633) (UniProt Q79YV4).
T1 sequence: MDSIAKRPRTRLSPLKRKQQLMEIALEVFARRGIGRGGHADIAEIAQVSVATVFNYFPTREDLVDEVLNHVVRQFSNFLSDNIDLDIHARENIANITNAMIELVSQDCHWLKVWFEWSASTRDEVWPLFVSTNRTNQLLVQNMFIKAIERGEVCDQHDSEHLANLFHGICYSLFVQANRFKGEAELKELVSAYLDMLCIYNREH
The experiment in a line: DNase I footprinting. The settings on record: Buffer, salt, pH and temperature not given (as in Zhang et al., 2012, 2017); EMSA on 6% polyacrylamide gel; footprinting with 0, 6, 9, 12 pmol His-OpaR.
For “AGACAATCACACCGATAGCCAGTAAGAAAATCATCACAAAAGGGATGAGTACAGCAGTACGTAGTGTAATTTGAGTCTTTGCAGTAGACATTGCCTAGTCACATTAGGGATGGTTCACCTTAATTGTACTGACATTTCTGTTAATATCGAGCGCTAAGCACTCTCATTGTTAACTCACTGCTTAAGTGACGGTCAGTACAACTCTTTTAACTTTCTGGTTAGCGTATTGCGTCCCCAGCCTAATACTTTAGCGGCATCTTGCTTGTGACCTTTAGTGTG (double strand) [VP0117 footprint probe]”, the binding result is “binds”. For “CCACTCCTCTTACAAGAATGAGGACGACATCAAGAAAATATTAAAAAATGGATAATTAACCATCGGTTAAGCGTAATAACTAATGACGCTATAAAGTTTTTTGTTATTATCAGTTAATTGTCAGTAGTACATGGACTTAACCGTAGTCGTTTCATGGGAATCTTGGAATCCGATATT (double strand) [VP0699 footprint probe]”, the binding entry is “binds”. In the case of “CCATTAAGTGACTTTAGTTCCACTTTTTTAGCTTATTTGATGACATAAGCAACAGTTTCGCCTCCAACCAATAAACAACTGAATACATATTAAAATATTCATTAAATTGACTATTTTTATGATAAACGCTTAATAATAGTTTTATCTATAAACAAACAGTGAGCTTTGTTATAAATTCATTAAAAATTTAACTTTGTATTAATTAGAAAATTCAGCGTCATATTTGTTCAACTGCGA (double strand) [scrA footprint probe]” it was “binds”; in that of “GCTTTTCTAGGCACAAAATGACTTTAGAATGGATTAATGCGAAAGCAATTAAAAAAGTGTGAGTAACGGCTGCAAACTATTGATTTCAATGTCAGGTAACGTACGTGTTCTTGAATGATTAATGACATTTTTATTCATATCATTAAACCAACATGCGGCAAAACCCGCTAACTTTGCACCATATACATCCGTCGTGAGGTGGTCACCAACATGCAAAATGTTTTCGGCAGGTAAATCGAGGAACTGCT (double strand) [VP2979 footprint probe]”, “binds”; in that of “GCCATATTCCAAACTCGTTGTGCCTGCCTTTTCAAGAACTGCTGGATAACGGTTACATCAAACCGAACTCAGAATTGAAACAAGCATTTAGCGAACTGTCGCTATATAATGACAATTCAATCATTTTCAGCTGTGGCTCAGGTGTGACTGCCTGTATTTTATTGTTGGCAGCTCATCAACTTGGCTTACGCA (double strand) [VPA1176 footprint probe]”, “binds”.

“CTTACCTTGGCGTACCTCTTGCCAATCCGTACTTTCAAATAAATCGCCTTGTCCTTGCATCCCGTTGCCTATTTAAACCATAAAAATTTCAGATAATTATTACCTTTGCAAAGGCTATTGGTTATTCTTGTAGATAATAAGAATTTTAACAATAAAAGAATAATTCTCGTAGTAACGGACGAGCTAGTGGGGAGCTAATGCGTTATTCACCCAGAAAGCAGT (double strand) [VPA0198 footprint probe]”: the binding result is on record as “binds”.
